Laboratory results as given in publication PMC6787221.

Experiments:
[1] = target: STAM2 UIM-SH3 with the linker shortened by 14 amino acids (human); assay: NMR titration; 1H-15N HSQC chemical shift perturbation of 15N-labelled US-WT, US-Δ1, US-Δ2 upon addition of unlabelled Lys63-Ub2 until saturation; 15 °C, 20 mM sodium phosphate pH 6.8, 10% D2O, 0.02% NaN3; 2:1 model (each domain interacts with one unit of Lys63-Ub2)
[2] = target: STAM2 UIM-SH3 with the linker shortened by 7 amino acids (human); assay: as above

Substance: Lys63-linked diubiquitin (from UniProt P0CG48 1-76) (complex)
- KD at the SH3 domain [1]: 483 µM
- KD at the SH3 domain [2]: 253 µM
